Assay results as given in patent US20110294738A1, “PTHR1 RECEPTOR COMPOUNDS” (priority 2008, published 2011).
* marks the point of attachment. Palmitoyl = CCCCCCCCCCCCCCCC(=O)*

Biological target: PTHR1 receptor
Sequence (P25961 whole entry): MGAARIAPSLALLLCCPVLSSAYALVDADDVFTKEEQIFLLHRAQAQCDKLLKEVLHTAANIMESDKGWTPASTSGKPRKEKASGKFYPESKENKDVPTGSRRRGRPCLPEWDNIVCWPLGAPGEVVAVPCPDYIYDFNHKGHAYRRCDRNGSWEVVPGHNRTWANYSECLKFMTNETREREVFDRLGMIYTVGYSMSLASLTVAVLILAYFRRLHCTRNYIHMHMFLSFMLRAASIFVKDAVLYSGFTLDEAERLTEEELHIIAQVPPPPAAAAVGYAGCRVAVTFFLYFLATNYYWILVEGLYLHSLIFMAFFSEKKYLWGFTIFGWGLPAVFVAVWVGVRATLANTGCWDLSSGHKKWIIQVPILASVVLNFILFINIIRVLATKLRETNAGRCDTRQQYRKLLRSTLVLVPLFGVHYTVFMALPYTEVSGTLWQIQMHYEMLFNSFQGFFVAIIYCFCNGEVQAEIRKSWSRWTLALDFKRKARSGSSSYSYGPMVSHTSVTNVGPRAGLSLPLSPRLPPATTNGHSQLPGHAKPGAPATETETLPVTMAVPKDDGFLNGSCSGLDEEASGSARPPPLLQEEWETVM

B1: Compound 13 (peptide)
peptide: Palmitoyl-GGYFRRLHSTRNYIH-NH2
SMILES: CCCCCCCCCCCCCCCC(=O)NCC(=O)NCC(=O)N[C@@H](Cc1ccc(O)cc1)C(=O)N[C@@H](Cc1ccccc1)C(=O)N[C@@H](CCCNC(=N)N)C(=O)N[C@@H](CCCNC(=N)N)C(=O)N[C@@H](CC(C)C)C(=O)N[C@@H](Cc1c[nH]cn1)C(=O)N[C@@H](CO)C(=O)N[C@H](C(=O)N[C@@H](CCCNC(=N)N)C(=O)N[C@@H](CC(N)=O)C(=O)N[C@@H](Cc1ccc(O)cc1)C(=O)N[C@H](C(=O)N[C@@H](Cc1c[nH]cn1)C(N)=O)[C@@H](C)CC)[C@@H](C)O
Binder B1 has a Fold Shift of EC50 of 0.7 fold and an Inhibition of Maximal Response of 29.2%.

B2: Compound 53 (peptide)
peptide: Palmitoyl-KLRETNAGRSDTRQQY-NH2
SMILES: CCCCCCCCCCCCCCCC(=O)N[C@@H](CCCCN)C(=O)N[C@@H](CC(C)C)C(=O)N[C@@H](CCCNC(=N)N)C(=O)N[C@@H](CCC(=O)O)C(=O)N[C@H](C(=O)N[C@@H](CC(N)=O)C(=O)N[C@@H](C)C(=O)NCC(=O)N[C@@H](CCCNC(=N)N)C(=O)N[C@@H](CO)C(=O)N[C@@H](CC(=O)O)C(=O)N[C@H](C(=O)N[C@@H](CCCNC(=N)N)C(=O)N[C@@H](CCC(N)=O)C(=O)N[C@@H](CCC(N)=O)C(=O)N[C@@H](Cc1ccc(O)cc1)C(N)=O)[C@@H](C)O)[C@@H](C)O
B2 gave a Fold Shift of EC50 of 2.1 fold and an Inhibition of Maximal Response of 6.4%.

B3: Compound 12 (peptide)
peptide: Palmitoyl-SSYFRRLHSTRNYIH-NH2
SMILES: CCCCCCCCCCCCCCCC(=O)N[C@@H](CO)C(=O)N[C@@H](CO)C(=O)N[C@@H](Cc1ccc(O)cc1)C(=O)N[C@@H](Cc1ccccc1)C(=O)N[C@@H](CCCNC(=N)N)C(=O)N[C@@H](CCCNC(=N)N)C(=O)N[C@@H](CC(C)C)C(=O)N[C@@H](Cc1c[nH]cn1)C(=O)N[C@@H](CO)C(=O)N[C@H](C(=O)N[C@@H](CCCNC(=N)N)C(=O)N[C@@H](CC(N)=O)C(=O)N[C@@H](Cc1ccc(O)cc1)C(=O)N[C@H](C(=O)N[C@@H](Cc1c[nH]cn1)C(N)=O)[C@@H](C)CC)[C@@H](C)O
With B3 the Fold Shift of EC50 was 0.9 fold and the Inhibition of Maximal Response was 26.6%.

B4: Compound 54 (peptide)
peptide: Palmitoyl-NIVRVLATKLRETNAGR-NH2
SMILES: CCCCCCCCCCCCCCCC(=O)N[C@@H](CC(N)=O)C(=O)N[C@H](C(=O)N[C@H](C(=O)N[C@@H](CCCNC(=N)N)C(=O)N[C@H](C(=O)N[C@@H](CC(C)C)C(=O)N[C@@H](C)C(=O)N[C@H](C(=O)N[C@@H](CCCCN)C(=O)N[C@@H](CC(C)C)C(=O)N[C@@H](CCCNC(=N)N)C(=O)N[C@@H](CCC(=O)O)C(=O)N[C@H](C(=O)N[C@@H](CC(N)=O)C(=O)N[C@@H](C)C(=O)NCC(=O)N[C@@H](CCCNC(=N)N)C(N)=O)[C@@H](C)O)[C@@H](C)O)C(C)C)C(C)C)[C@@H](C)CC
In the case of B4, the Fold Shift of EC50 is reported as 0.7 fold and the Inhibition of Maximal Response is reported as 17.5%.

B5: Compound 39 (peptide)
peptide: Palmitoyl-LYLHSLIFMAFFSEKKYL-NH2
SMILES: CCCCCCCCCCCCCCCC(=O)N[C@@H](CC(C)C)C(=O)N[C@@H](Cc1ccc(O)cc1)C(=O)N[C@@H](CC(C)C)C(=O)N[C@@H](Cc1c[nH]cn1)C(=O)N[C@@H](CO)C(=O)N[C@@H](CC(C)C)C(=O)N[C@H](C(=O)N[C@@H](Cc1ccccc1)C(=O)N[C@@H](CCSC)C(=O)N[C@@H](C)C(=O)N[C@@H](Cc1ccccc1)C(=O)N[C@@H](Cc1ccccc1)C(=O)N[C@@H](CO)C(=O)N[C@@H](CCC(=O)O)C(=O)N[C@@H](CCCCN)C(=O)N[C@@H](CCCCN)C(=O)N[C@@H](Cc1ccc(O)cc1)C(=O)N[C@@H](CC(C)C)C(N)=O)[C@@H](C)CC
B5 was tested, and the Fold Shift of EC50 was 1.3 fold and the Inhibition of Maximal Response was 29.3%.

With Palmitoyl-LYLHSLIFMAFFSEKK-NH2 (not fully specified) [Compound 40] the Fold Shift of EC50 was 1.5 fold and the Inhibition of Maximal Response was 28.3%.

B6: Compound 51 (peptide)
peptide: Palmitoyl-RETNAGRSDTRQQYRKLLKS-NH2
SMILES: CCCCCCCCCCCCCCCC(=O)N[C@@H](CCCNC(=N)N)C(=O)N[C@@H](CCC(=O)O)C(=O)N[C@H](C(=O)N[C@@H](CC(N)=O)C(=O)N[C@@H](C)C(=O)NCC(=O)N[C@@H](CCCNC(=N)N)C(=O)N[C@@H](CO)C(=O)N[C@@H](CC(=O)O)C(=O)N[C@H](C(=O)N[C@@H](CCCNC(=N)N)C(=O)N[C@@H](CCC(N)=O)C(=O)N[C@@H](CCC(N)=O)C(=O)N[C@@H](Cc1ccc(O)cc1)C(=O)N[C@@H](CCCNC(=N)N)C(=O)N[C@@H](CCCCN)C(=O)N[C@@H](CC(C)C)C(=O)N[C@@H](CC(C)C)C(=O)N[C@@H](CCCCN)C(=O)N[C@@H](CO)C(N)=O)[C@@H](C)O)[C@@H](C)O
For B6, the Fold Shift of EC50 was 12.4 fold and the Inhibition of Maximal Response was -0.015.

B7: Compound 52 (peptide)
peptide: Palmitoyl-TNAGRSDTRQQYRKLLKSTL-NH2
SMILES: CCCCCCCCCCCCCCCC(=O)N[C@H](C(=O)N[C@@H](CC(N)=O)C(=O)N[C@@H](C)C(=O)NCC(=O)N[C@@H](CCCNC(=N)N)C(=O)N[C@@H](CO)C(=O)N[C@@H](CC(=O)O)C(=O)N[C@H](C(=O)N[C@@H](CCCNC(=N)N)C(=O)N[C@@H](CCC(N)=O)C(=O)N[C@@H](CCC(N)=O)C(=O)N[C@@H](Cc1ccc(O)cc1)C(=O)N[C@@H](CCCNC(=N)N)C(=O)N[C@@H](CCCCN)C(=O)N[C@@H](CC(C)C)C(=O)N[C@@H](CC(C)C)C(=O)N[C@@H](CCCCN)C(=O)N[C@@H](CO)C(=O)N[C@H](C(=O)N[C@@H](CC(C)C)C(N)=O)[C@@H](C)O)[C@@H](C)O)[C@@H](C)O
B7 showed a Fold Shift of EC50 of 11.1 fold and an Inhibition of Maximal Response of 1.7%.

B8: Compound 11 (peptide)
peptide: Palmitoyl-GSYFRRLHSTRNYIH-NH2
SMILES: CCCCCCCCCCCCCCCC(=O)NCC(=O)N[C@@H](CO)C(=O)N[C@@H](Cc1ccc(O)cc1)C(=O)N[C@@H](Cc1ccccc1)C(=O)N[C@@H](CCCNC(=N)N)C(=O)N[C@@H](CCCNC(=N)N)C(=O)N[C@@H](CC(C)C)C(=O)N[C@@H](Cc1c[nH]cn1)C(=O)N[C@@H](CO)C(=O)N[C@H](C(=O)N[C@@H](CCCNC(=N)N)C(=O)N[C@@H](CC(N)=O)C(=O)N[C@@H](Cc1ccc(O)cc1)C(=O)N[C@H](C(=O)N[C@@H](Cc1c[nH]cn1)C(N)=O)[C@@H](C)CC)[C@@H](C)O
Work on B8 yielded a Fold Shift of EC50 of 1.1 fold and an Inhibition of Maximal Response of 19.8%.

B9: Compound 14 (peptide)
peptide: Palmitoyl-LAYFRRLHSTRN-NH2
SMILES: CCCCCCCCCCCCCCCC(=O)N[C@@H](CC(C)C)C(=O)N[C@@H](C)C(=O)N[C@@H](Cc1ccc(O)cc1)C(=O)N[C@@H](Cc1ccccc1)C(=O)N[C@@H](CCCNC(=N)N)C(=O)N[C@@H](CCCNC(=N)N)C(=O)N[C@@H](CC(C)C)C(=O)N[C@@H](Cc1c[nH]cn1)C(=O)N[C@@H](CO)C(=O)N[C@H](C(=O)N[C@@H](CCCNC(=N)N)C(=O)N[C@@H](CC(N)=O)C(N)=O)[C@@H](C)O
With B9 the Fold Shift of EC50 was 0.7 fold and the Inhibition of Maximal Response was 15.2%.

B10: Compound 2 (peptide)
peptide: Palmitoyl-RRLHSTRNYIH-NH2
SMILES: CCCCCCCCCCCCCCCC(=O)N[C@@H](CCCNC(=N)N)C(=O)N[C@@H](CCCNC(=N)N)C(=O)N[C@@H](CC(C)C)C(=O)N[C@@H](Cc1c[nH]cn1)C(=O)N[C@@H](CO)C(=O)N[C@H](C(=O)N[C@@H](CCCNC(=N)N)C(=O)N[C@@H](CC(N)=O)C(=O)N[C@@H](Cc1ccc(O)cc1)C(=O)N[C@H](C(=O)N[C@@H](Cc1c[nH]cn1)C(N)=O)[C@@H](C)CC)[C@@H](C)O
B10 gave a Fold Shift of EC50 of 1.9 fold and an Inhibition of Maximal Response of -24.9%.

B11: Compound 10 (peptide)
peptide: Palmitoyl-LAYFRRLHSTRNYIHMH-NH2
SMILES: CCCCCCCCCCCCCCCC(=O)N[C@@H](CC(C)C)C(=O)N[C@@H](C)C(=O)N[C@@H](Cc1ccc(O)cc1)C(=O)N[C@@H](Cc1ccccc1)C(=O)N[C@@H](CCCNC(=N)N)C(=O)N[C@@H](CCCNC(=N)N)C(=O)N[C@@H](CC(C)C)C(=O)N[C@@H](Cc1c[nH]cn1)C(=O)N[C@@H](CO)C(=O)N[C@H](C(=O)N[C@@H](CCCNC(=N)N)C(=O)N[C@@H](CC(N)=O)C(=O)N[C@@H](Cc1ccc(O)cc1)C(=O)N[C@H](C(=O)N[C@@H](Cc1c[nH]cn1)C(=O)N[C@@H](CCSC)C(=O)N[C@@H](Cc1c[nH]cn1)C(N)=O)[C@@H](C)CC)[C@@H](C)O
Work on B11 yielded a Fold Shift of EC50 of 1.1 fold and an Inhibition of Maximal Response of 24.1%.

B12: Compound 38 (peptide)
peptide: Palmitoyl-LYLHSLIFMAFFSEKKYLWG-NH2
SMILES: CCCCCCCCCCCCCCCC(=O)N[C@@H](CC(C)C)C(=O)N[C@@H](Cc1ccc(O)cc1)C(=O)N[C@@H](CC(C)C)C(=O)N[C@@H](Cc1c[nH]cn1)C(=O)N[C@@H](CO)C(=O)N[C@@H](CC(C)C)C(=O)N[C@H](C(=O)N[C@@H](Cc1ccccc1)C(=O)N[C@@H](CCSC)C(=O)N[C@@H](C)C(=O)N[C@@H](Cc1ccccc1)C(=O)N[C@@H](Cc1ccccc1)C(=O)N[C@@H](CO)C(=O)N[C@@H](CCC(=O)O)C(=O)N[C@@H](CCCCN)C(=O)N[C@@H](CCCCN)C(=O)N[C@@H](Cc1ccc(O)cc1)C(=O)N[C@@H](CC(C)C)C(=O)N[C@@H](Cc1c[nH]c2ccccc12)C(=O)NCC(N)=O)[C@@H](C)CC
In the case of B12, the Fold Shift of EC50 is reported as 1.1 fold and the Inhibition of Maximal Response is reported as 21.9%.

B13: Compound 37 (peptide)
peptide: Palmitoyl-LHSLIFMAFFSEKKYLWGFT-NH2
SMILES: CCCCCCCCCCCCCCCC(=O)N[C@@H](CC(C)C)C(=O)N[C@@H](Cc1c[nH]cn1)C(=O)N[C@@H](CO)C(=O)N[C@@H](CC(C)C)C(=O)N[C@H](C(=O)N[C@@H](Cc1ccccc1)C(=O)N[C@@H](CCSC)C(=O)N[C@@H](C)C(=O)N[C@@H](Cc1ccccc1)C(=O)N[C@@H](Cc1ccccc1)C(=O)N[C@@H](CO)C(=O)N[C@@H](CCC(=O)O)C(=O)N[C@@H](CCCCN)C(=O)N[C@@H](CCCCN)C(=O)N[C@@H](Cc1ccc(O)cc1)C(=O)N[C@@H](CC(C)C)C(=O)N[C@@H](Cc1c[nH]c2ccccc12)C(=O)NCC(=O)N[C@@H](Cc1ccccc1)C(=O)N[C@H](C(N)=O)[C@@H](C)O)[C@@H](C)CC
In the case of B13, the Fold Shift of EC50 is reported as 1.1 fold and the Inhibition of Maximal Response is reported as 35.6%.
